T1: Rat Semaphorin3A-Sema Domain, TPP-19120 (rat, UniProt Q63548 21-569)
T1 construct: produced inhouse
T1 sequence: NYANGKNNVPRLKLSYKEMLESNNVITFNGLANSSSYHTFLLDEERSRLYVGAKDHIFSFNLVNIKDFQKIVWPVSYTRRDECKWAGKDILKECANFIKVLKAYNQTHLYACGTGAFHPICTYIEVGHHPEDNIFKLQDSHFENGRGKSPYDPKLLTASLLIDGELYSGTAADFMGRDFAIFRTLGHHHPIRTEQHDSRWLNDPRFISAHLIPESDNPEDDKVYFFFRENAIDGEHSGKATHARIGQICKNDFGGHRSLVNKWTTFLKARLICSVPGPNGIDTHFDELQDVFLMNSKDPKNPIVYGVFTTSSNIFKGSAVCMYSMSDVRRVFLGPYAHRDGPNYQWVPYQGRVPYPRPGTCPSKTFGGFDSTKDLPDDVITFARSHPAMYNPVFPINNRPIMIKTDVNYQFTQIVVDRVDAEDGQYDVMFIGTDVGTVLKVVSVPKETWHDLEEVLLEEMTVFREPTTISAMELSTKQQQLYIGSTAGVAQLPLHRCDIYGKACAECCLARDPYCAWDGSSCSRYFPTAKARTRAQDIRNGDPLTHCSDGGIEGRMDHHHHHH

T2: Pig Semaphorin3A-Sema Domain, TPP-20176 (pig, UniProt Q63548 21-569 (rat entry))
T2 construct: produced inhouse
T2 chain: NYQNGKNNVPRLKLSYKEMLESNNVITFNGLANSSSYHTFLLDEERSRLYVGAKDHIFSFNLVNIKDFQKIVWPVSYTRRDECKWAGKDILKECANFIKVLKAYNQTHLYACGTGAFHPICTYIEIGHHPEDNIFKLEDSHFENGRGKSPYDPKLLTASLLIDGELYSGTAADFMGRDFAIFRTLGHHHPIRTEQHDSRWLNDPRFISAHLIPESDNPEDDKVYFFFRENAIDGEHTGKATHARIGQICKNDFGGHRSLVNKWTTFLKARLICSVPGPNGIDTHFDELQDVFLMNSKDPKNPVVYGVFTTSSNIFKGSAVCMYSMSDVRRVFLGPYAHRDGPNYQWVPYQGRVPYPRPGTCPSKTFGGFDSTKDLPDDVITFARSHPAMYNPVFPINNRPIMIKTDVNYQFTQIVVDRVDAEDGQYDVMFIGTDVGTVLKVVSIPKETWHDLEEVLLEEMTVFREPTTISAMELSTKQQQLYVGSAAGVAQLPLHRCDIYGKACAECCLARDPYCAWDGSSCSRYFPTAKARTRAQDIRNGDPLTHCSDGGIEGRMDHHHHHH

T3: Cyno Semaphorin3A-Sema Domain, TPP-19122 (cynomolgus (Macaca fascicularis), UniProt Q63548 21-569 (rat entry), limits assumed)
T3 construct: produced inhouse
T3 chain: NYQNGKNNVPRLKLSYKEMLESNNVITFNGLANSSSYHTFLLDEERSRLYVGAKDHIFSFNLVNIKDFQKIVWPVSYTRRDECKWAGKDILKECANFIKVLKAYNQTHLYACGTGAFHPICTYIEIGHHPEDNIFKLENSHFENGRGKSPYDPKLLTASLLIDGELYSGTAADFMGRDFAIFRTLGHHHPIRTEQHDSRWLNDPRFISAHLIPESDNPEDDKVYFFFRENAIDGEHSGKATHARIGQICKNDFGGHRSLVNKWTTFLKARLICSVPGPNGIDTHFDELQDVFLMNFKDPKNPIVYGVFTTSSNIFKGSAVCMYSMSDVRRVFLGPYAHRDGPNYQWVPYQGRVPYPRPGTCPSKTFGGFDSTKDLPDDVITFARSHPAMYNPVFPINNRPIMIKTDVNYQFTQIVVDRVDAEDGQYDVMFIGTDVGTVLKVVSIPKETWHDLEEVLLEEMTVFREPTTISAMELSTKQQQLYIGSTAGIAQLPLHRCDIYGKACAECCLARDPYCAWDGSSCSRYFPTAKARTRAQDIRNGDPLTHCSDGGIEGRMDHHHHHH


What was measured:
Assay in all cases: SPR, captured antibody, Sema3A domain analyte
[1] = target: T1, Rat Semaphorin3A-Sema Domain, TPP-19120
In short: (§1)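 Kinetics fitted to a 1:1 Langmuir model after double referencing; glycine pH 2.0 regeneration. Sema3A domain analytes (several species) ran at […]-3.125 nM multi-cycle or single 100 nM; Fc-tagged Sema3A at 1.56-200 nM over Fab-captured antibody, otherwise Fc capture. Buffer HBS P+ plus 300 mM NaCl, CaCl₂, MgCl₂, BSA, 25° C.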

[2] = target: T2, Pig Semaphorin3A-Sema Domain, TPP-20176
In short: as §1

[3] = target: T3, Cyno Semaphorin3A-Sema Domain, TPP-19122
In short: as §1

| Kd [1] [nM] | Kd [2] [nM] | Kd [3] [nM] | Binder |
| --- | --- | --- | --- |
| 0.026 | 0.038 | 0.078 | TPP-30788 (antibody, human IgG1, kappa, V domains shown, prior art, WO 2020/225400; also called BI clone I; Böhringer (BI) Clone I) VH: EVQLVESGGGLVQPGGSLRLSCAASGFTFSSYYMSWVRQAPGKGLEWVSTIIKSGGYAYYPDSVKDRFTISRDNSKNTLYLQMSSLRAEDTAVYYCVRGGQGAMDYWGQGTTVTVSS VL: EIVLTQSPATLSLSPGERATLSCRASQSIGDYLHWYQQKPGQAPRLLIKYASQSISGIPARFSGSGSGTDFTLTITSLEPEDFAVYYCQQGYSFPYTFGGGTKLEIKR |
| 0.022 | 0.036 | 0.077 | TPP-30790 (antibody, human IgG1, kappa, V domains shown, prior art, WO 2020/225400; also called BI clone III; Böhringer (BI) Clone III) VH: EVQLVESGGGLVQLGGSLRLSCAASGFTFSSYYMSWVRQAPGKGLEWVSTIIKSGGYAYYPDSVKDRFTISRDNSKNTLYLQMNSLRAEDTAVYYCVKGGQGAMDYWGQGTTVTVSS VL: EIVLTQSPATLSLSPGERATLSCRASQSIGDYLHWYQQKPGQAPRLLIYYASQSISGIPARFSGSGSGTDFTLTISSLEPEDFAVYYCQQGYSFPYTFGGGTKLEIKR |
| 0.017 | 0.029 | 0.057 | TPP-30791 (antibody, human IgG1, kappa, V domains shown, prior art, WO 2020/225400; also called BI clone IV; Böhringer (BI) Clone IV) VH: EVQLVESGGGLLQLGGSLRLSCAASGFTFSSYYMSWVRQAPGKGLEWVSTIIKSGGYAYYPDSVKDRFTISRDNSKNTLNLQMNSLRAEDTAVYYCVKGGQGAMDYWGQGTTVTVSS VL: EIVLTQSPATLSLSPGERATLSCRASQSIGDYLHWYQQKPGQAPRLLIKYASQSISGIPARFSGSGSGTDFTLTISSLEPEDFAVYYCQQGYSFPYTFGGGTKLEIKR |
| 0.026 | 0.039 | 0.079 | TPP-30789 (antibody, human IgG1, kappa, V domains shown, prior art, WO 2020/225400; also called BI clone II; Böhringer (BI) Clone II) VH: EVQLVESGGGLVQPGGSLRLSCAASGFPFSSYYMSWVRQAPGKGLEWVSTIIKSGGYAYYPDSVKDRFTISRDNSKNTLYLQMSSLRAEDTAVYYCVRGGQGAMDYWGQGTTVTVSS VL: EIVLTQSPATLSLSPGERATLSCRASQSIGDYLHWYQQKPGQAPRLLIKYASQSISGIPARFSGSGSGTDFTLTITSLEPEDFAVYYCQQGYSFPYTFGGGTKLEIKR |
| 0.11 | 0.011 | 0.026 | TPP-23337 (antibody, human IgG4 S228P, lambda, V domains shown) VH: EVQLLESGGGLVQPGGSLRLSCAASGFTFSSYAMSWVRQAPGKGLEWVSAIGYGGDTYYADSVKGRFTISRDNSKNTLYLQMNSLRAEDTAVYYCARRDDYTSRDAFDYWGQGTLVTVSS VL: not shown |
| 14 | 9 | 40 | TPP-15370 (antibody, human IgG1, lambda, V domains shown, human IgG1; also called IgG1, hit from panning; parental mAb) VH: EVQLLESGGGLVQPGGSLRLSCAASGFTFSSYGMHWVRQAPGKGLEWVSAIGTGGDTYYADSVMGRFTISRDNSKNTLYLQMNSLRAEDTAVYYCARRDDYTSRDAFDVWGQGTLVTVSS VL: not shown |
| – | 0.078 | 0.072 | TPP-23373 (antibody, human IgG4 S228P, lambda, V domains shown) VH: EVQLLESGGGLVQPGGSLRLSCAASGFTFYSYAMSWVRQAPGKGLEWVSAIGYGGDTYYADSVKGRFTISRDNSKNTLYLQMNSLRAEDTAVYYCARRDDYTSRDAFDYWGQGTLVTVSS VL: not shown |
| – | 0.046 | 0.042 | TPP-23338 (antibody, human IgG4 S228P, lambda, V domains shown) VH: EVQLLESGGGLVQPGGSLRLSCAASGFTFSSYAMSWVRQAPGKGLEWVSAIGYGGDTYYADSVKGRFTISRDNSKNTLYLQMNSLRAEDTAVYYCARRDDYTSRDAFDYWGQGTLVTVSS VL: not shown |
| – | 0.047 | 0.045 | TPP-23375 (antibody, human IgG4 S228P, lambda, V domains shown) VH: EVQLLESGGGLVQPGGSLRLSCAASGFTFYSYAMSWVRQAPGKGLEWVSAIGYGGDTYYADSVKGRFTISRDNSKNTLYLQMNSLRAEDTAVYYCARRDDYTSRDAFDYWGQGTLVTVSS VL: not shown |
| – | 0.062 | 0.06 | TPP-23340 (antibody, human IgG4 S228P, lambda, V domains shown) VH: EVQLLESGGGLVQPGGSLRLSCAASGFTFSSYAMSWVRQAPGKGLEWVSAIGYGGDTYYADSVKGRFTISRDNSKNTLYLQMNSLRAEDTAVYYCARRDDYTSRDAFDYWGQGTLVTVSS VL: not shown |
| – | 0.055 | 0.062 | TPP-23345 (antibody, human IgG4 S228P, lambda, V domains shown) VH: EVQLLESGGGLVQPGGSLRLSCAASGFTFSSYAMSWVRQAPGKGLEWVSAIGYGGDTYYADSVKGRFTISRDNSKNTLYLQMNSLRAEDTAVYYCARRDDYTSRDAFDYWGQGTLVTVSS VL: not shown |
| – | 0.086 | 0.087 | TPP-23341 (antibody, human IgG4 S228P, lambda, V domains shown) VH: EVQLLESGGGLVQPGGSLRLSCAASGFTFSSYAMSWVRQAPGKGLEWVSAIGYGGDTYYADSVKGRFTISRDNSKNTLYLQMNSLRAEDTAVYYCARRDDYTSRDAFDYWGQGTLVTVSS VL: not shown |
| 0.056 | 0.014 | 0.015 | TPP-23334 (antibody, human IgG4 S228P, lambda, V domains shown) VH: EVQLLESGGGLVQPGGSLRLSCAASGFTFSSYAMSWVRQAPGKGLEWVSAIGYGGDTYYADSVKGRFTISRDNSKNTLYLQMNSLRAEDTAVYYCARRDDYTSRDAFDYWGQGTLVTVSS VL: not shown |
| 0.03 | 0.067 | 0.078 | TPP-23298 (antibody, human IgG4 S228P, lambda, V domains shown) VH: EVQLLESGGGLVQPGGSLRLSCAASGFTFYSYAMSWVRQAPGKGLEWVSAIGTGGDTYYADSVKGRFTISRDNSKNTLYLQMNSLRAEDTAVYYCARRDDYTSRDAFDYWGQGTLVTVSS VL: not shown |
| – | 0.058 | 0.061 | TPP-23346 (antibody, human IgG4 S228P, lambda, V domains shown) VH: EVQLLESGGGLVQPGGSLRLSCAASGFTFYSYAMLWVRQAPGKGLEWVSAIGTGGDTYYADSVKGRFTISRDNSKNTLYLQMNSLRAEDTAVYYCARRDDYTSRDAFDYWGQGTLVTVSS VL: not shown |
| 0.0033 | < 0.003 | < 0.003 | TPP-23374 (antibody, human IgG4 S228P, lambda, V domains shown) VH: EVQLLESGGGLVQPGGSLRLSCAASGFTFYSYAMSWVRQAPGKGLEWVSAIGYGGDTYYADSVKGRFTISRDNSKNTLYLQMNSLRAEDTAVYYCARRDDYTSRDAFDYWGQGTLVTVSS VL: not shown |
| – | 0.053 | 0.054 | TPP-23347 (antibody, human IgG4 S228P, lambda, V domains shown) VH: EVQLLESGGGLVQPGGSLRLSCAASGFTFYSYAMLWVRQAPGKGLEWVSAIGTGGDTYYADSVKGRFTISRDNSKNTLYLQMNSLRAEDTAVYYCARRDDYTSRDAFDYWGQGTLVTVSS VL: not shown |
| 5.4 | 4 | 14 | TPP-17755 (antibody, human IgG1, lambda, V domains shown, also called Samsung; Samsung Prior Art F11) VH: EVQLLESGGGLVQTGGSLRLSCAASGFTFSDYAMSWVRQAPGKGLEWVSWIYYDSGSKYYADSVKGRFTISRDNSKNTLYLQMNSLRAEDTAVYYCAKLNGDFDYWGQGTLVTVSS VL: QSVLTQPPSASGTPGQRVTISCSGSSSNIGNNDVSWYQQLPGTAPKLLIYADSHRPSGVPDRFSGSKSGTSASLAISGLRSEDEADYYCGAWDSSLSGYVFGGGTKLTVLG |

Reference: patent US20240254222A1 (Bayer, published 2024)
